Settings: Aspergillus oryzae (strain ATCC 42149 / RIB 40), 25 °C, Urea, Fluorescence, NaCl 0.2 M, whole UniProt chain shown

B1: Guanyl-specific ribonuclease T1 wild type, P00651 (protein)
chain: MMYSKLLTLTTLLLPTALALPSLVERACDYTCGSNCYSSSDVSTAQAAGYQLHEDGETVGSNSYPHKYNNYEGFDFSVSSPYYEWPILSSGDVYSGGSPGADRVVFNENNQLAGVITHTGASGNNFVECT
In the case of B1, the denaturant m value (pH 6.02, MES 30 mM) is reported as 1.25 kcal/mol/M, the “denaturant midpoint (higher = more stable)” value (pH 6.02, MES 30 mM) is reported as 6.58 M and the unfolding free energy (pH 6.02, MES 30 mM) is reported as 8.24 kcal/mol. The denaturant m value (pH 8.02, HEPPSO 30 mM) was 1.35 kcal/mol/M, the “denaturant midpoint (higher = more stable)” value (pH 8.02, HEPPSO 30 mM) was 4.38 M and the unfolding free energy (pH 8.02, HEPPSO 30 mM) was 5.92 kcal/mol.
